Data as given in article PMC10576031 (Proceedings of the National Academy of Sciences of the …, 2023).

Columns and labels:
[1] = biological target: Human wild-type tau-K18 (residues 244 to 372), monomer (Homo sapiens, wild type, 2N4R (tau-F) …, UniProt P10636-8); experiment: far-Western, overlay or dot blot
[2] = biological target: tau-K18 fibrils (Homo sapiens, wild type, 2N4R (tau-F) …, UniProt P10636-8); experiment: far-Western, overlay or dot blot
Sequence of tau-K18 fibrils (P10636 561-689): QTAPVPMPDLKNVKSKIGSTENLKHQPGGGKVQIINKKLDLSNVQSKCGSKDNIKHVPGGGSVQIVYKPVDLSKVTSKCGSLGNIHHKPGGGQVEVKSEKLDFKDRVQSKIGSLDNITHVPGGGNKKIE

Sequence of Human wild-type tau-K18 (residues 244 to 372), monomer (P10636 561-689): as above

B1: VDW nanobody (first generation, scaffold 1) (VHH)
VHH: QVQLQESGGGLVQPGGSLRLSCAASGRTFSSYNMGWFRQAPGKGREFVASITSSGDKSDYTDSVKGRFTISRDNAKNTMYLQMNNLKPEDTATYYCARGSVWIWYEPVDWSEGTQVTVSS
- binding result [1]: binds
- binding result [2]: binds
